Measured values from the domain aggregation screens of Martell et al. (2025).

test: soluble fraction after stress (log2 fold change); higher = more stays soluble; pooled small domains, quantitative proteomics; conditions: stress: pH 4
In short: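 Custom libraries of small protein domains were pooled and measured with high-throughput quantitative proteomics after pH 4 stress. The read-out is the fold change in the amount of each domain that stays soluble after the acid stress, taken as a measure of aggregation propensity. Fold changes are on a log2 scale, and higher values mean more of the domain stayed soluble.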

Going from “HMRRPTYPTVTTEAGMVVEDRSSGFVGDIVRWSFEGVTLRDRQQQLRHFTWKPGGFLINGTPVTLKRPE” to “HMRRRVIGTLVMGDMSTDFKVLADGHTHRVLAAAISFHKAKPGDEVVILVPKSAPSKWAAVEHVMK”, the “soluble fraction (log2)” value rises from 0.0911 to at least 0.43.

First: HMRSAKLPYSEFLKLVDTDKVNDVSIVGRTISGHLDDGSKFSTYTPPNDPNIIEKLSSHNVIINSAPE
Second: HMRSASFDIMSQKQSDATLGYERVYDTETNEVYKAYNGFTDDYDGERYKSISDNMYTKGISGYIEK
The “soluble fraction (log2)” value of the first is higher: 0.337 for the first, -0.151 for the second.

“HMRSDSEIKEDVLDELMWQPNIDETQIGVIVEKGVVTLTGFVDAYAKKTAALDAVKNVKGVKAVANDIEV” and “HMRSFGRLRRRDSGRWEAAYVGPDARLYRAPATFEAKDDAIAWLSAERRMIELDTWIKPHDRASR” are within 0.2 log units of each other in “soluble fraction (log2)” value: -0.0968 for the first, -0.000443 for the second.

“HMRSGFAFSEEEIKHLDNIVSPLLIKGQSIHHISIFHKDEVMMSERTLYSYVNNGLFSARNIDMPRTVRMR” and “HMRSISVEMDGKEYLIPTVSENGKVLSDDDAVKQFKKTGKHLDVFDSPEDATAYARQLHEDQESFYA” are within 0.2 log units of each other in “soluble fraction (log2)” value: 0.218 for the first, 0.22 for the second.

Compared with “HMRSKTDLVYEEIKKLILRGELSSDTPISENHLARRFEISRTPIREALKRLHIEGFVRIIPNHGVFVR”, “HMRSLAVGNVVSEEGKPSYLLLDSKRTMLFSENSIPSLYLEDGRRVIVNYTLLDEDYQGYDFRIHVNDIDT” is higher in “soluble fraction (log2)” value: -0.304 for the first, 0.22 for the second.

Going from “HMRSNADALIGRTARVSQTIVENGFGRVALDGDDWKAQAADGSRIEEGQNVIVKDRDSIILTVEKE” to “HMRSNIYTEEKLWTVLQDFFQENRYLTISLMRMKFGLSRHMAQKWIDHFIAKGLLVKDGTPRSPIYFLND”, the “soluble fraction (log2)” value falls from 0.256 to -0.538.

Going from “HMRSNQKVSQIAISQVLPGMVTAKNVYSRNDQLILNRETTLDSTKIAKIMFYAIESIYVYEPE” to “HMRSPVDALSNRELQVLQMVGRGLSSRQVAEALHLSVKTVEAHRQRIKGKLGLRTGAQLVQFAANWVTG”, the “soluble fraction (log2)” value rises from -0.6 to -0.182.

First: HMRSREGVRWIIRERIMEELQERHHMDDGELLEMIDRSIGEMGQEIFLPLKERIWLRGSLFDSFR
Second: HMRSWRDQRVDDLLAAVSELGMTMSRAAAGDLLDQRVEYVANQMRVTPATARKYLTEETLAGMAREIVFG
The “soluble fraction (log2)” value of the first is lower: -1.44 for the first, -0.83 for the second.

“HMRTAFPQLTERELEILDLIAAGRNNAQIASALYLAPKTVRNNVSNILAKLQATDRAEAIIRARDAGLGG” and “HMRTAKEVFYKELKGYMQNGDELSVKKIYSLFPEINPKTVSWRLHELVQHGKIHRTGHGYYALTQ” are within 0.2 log units of each other in “soluble fraction (log2)” value: 0.273 for the first, 0.0797 for the second.

“HMRTDTIINSGGLKINPEEVENEILKSLGDNNFFIDKIKNDKFGEEIILIALKKIKINLLIESLNLI” and “HMRTFFEIEQLKAYVGEEIQVKFEADSHKQTVLGKLISISEDFIEIENSKKGNLKISLDNYLTSKLIY” are within 0.2 log units of each other in “soluble fraction (log2)” value: -0.286 for the first, -0.468 for the second.

“HMRTGSSVLVGLVAPVRLGATGAPKVFADGALWEARSAVPLNDGQLVEITGTDGLTVLVKPSA” and “HMRTIVSELNDIKGISDASAKKLLIRYGSFEAVREAVMKHEEEFELDMGKRITGALTRYFYEE” are within 0.2 log units of each other in “soluble fraction (log2)” value: 0.138 for the first, 0.223 for the second.

Compared with “HMRTKLEEAVEWLQEQLNDGPVLSKELESEAKAADILPGTLRRAGEALGVVKQKQGGRGGWTWSLPR”, “HMRTLGADLRALRKARGLTLAGMADNMGKSVGWMSQIERDISEPSISDLRALAKLLDVSVSSLFR” is lower in “soluble fraction (log2)” value: at least 0.43 for the first, -0.557 for the second.

Compared with “HMRTQEELVAEVREQMEAMGTIATLYVELYESSEERLVGGVIFEDERHYRFVYEDGLLHYEEEK”, “HMRTRSDVKRAAIIQAAKDAFQEYGVNATSMDKLAEMASVSKRTVYNHFSAKEELVMHIVKE” is higher in “soluble fraction (log2)” value: -1 for the first, 0.174 for the second.

Going from “HMRTVPEALLGRAYETAETAIVLEGLEAKRTDVFHPTIGNGTVIRLEPASGSQVSAGGVIEIFVSKGTETI” to “HMRVDYKTQLQELLQRQGAAAPQYRLLVEEGPAHLRRFQVGVYFQGRLLGTGWGRNKKEAEQEAARQALMP”, the “soluble fraction (log2)” value rises from -1.31 to 0.186.

Going from “HMRVEEVGYGEFLQMAEERDLAEVQVTDTEIIFSDKDTPPNYYKTGRMDDPFLVDRLYSAGIRDFGE” to “HMRVESVGDRIRRLRKSLGLTQVKLAQMLGIKAPSVVQWESDKTNLSGENLLNAAKLFGVTPDYILYGG”, the “soluble fraction (log2)” value rises from -1.65 to 0.233.

First: HMRVLEYTADGSRLDVLLSQDGVLSRSRAAELIKGGAVTVDGRAEGKPSAKPAPGALVRVEVPE
Second: HMRVVGRNHYDDADLAHIRSVIQLEARPLNVSRIARTLANEYPKHTYWSYLSFLQKNLRDRPDLF
The “soluble fraction (log2)” value of the first is higher: at least 0.43 for the first, 0.419 for the second.

First: HMRVVPEILERAVAVFEALGVDRLPSSTLADRLGYDSPEALADVLRPLGVRPKKYRDGKSTARGYLAADLG
Second: HMRYEESVTLGERLLNQSLVALKADNIDDALWERFLREEAGEKSRQEILSDIGLGKRLPVVVAKRLLAPS
The “soluble fraction (log2)” value of the first is higher: -0.284 for the first, -0.982 for the second.

Going from “HMRYPLPYAFARSQQLLLEETDDGRYTLWMSSHPARSAVGEVSRKYGVQTFEVLADGPLAQRISAAYAQ” to “HMRYTAAEMAKKLDISRSYLYYLKEAGVVEIEKNENGKPIWTESVYNQLFEYIKKNHRTEEADNTQ”, the “soluble fraction (log2)” value falls from 0.0965 to -0.61.

Going from “HMSAAIGEAVIATDEINVRSGPGLSHEIVSVVSRNESYPILEERGDWVQIQLNGGQKGWVVSWLIKKKS” to “HMSAAMTESVLDGIPGLGATRKAALLAHFGSVRKLRAATSEQVREVPGIGPRLAETILATLHEP”, the “soluble fraction (log2)” value rises from -0.268 to 0.0277.
